Measured values from the domain aggregation screens of Martell et al. (2025).

Experiment: soluble fraction after stress (log2 fold change); higher = more stays soluble; pooled small domains, quantitative proteomics
Conditions: stress: 75 degC
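Note: 20 min heating vs room temperature control held 20 min.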

HMKHTQTDEGELLSTLRTLFPNSSSSSLRKMLTQGRILVNQEVVHRAKHALQAGDEIEVLARQ
soluble fraction (log2): -0.13

HMKHVDLDNNERYIYGIIGSTKIHVDEVVEKSGMETKHVMAILTNLELKEAIKGIPGGFYLR
soluble fraction (log2): -2.02

HMKHVENLSDEKTIQAIQENPYMQYLLGLSKFTEKPVFVPELFVLIRKRLDQDFFNMLTLILAEADG
soluble fraction (log2): ≥ 1.04

HMKHYIDFIAEQLKTLTAIPSPSGYTKNATDYLMKLLQDMGYEPKLSRKGNVFVTLGGDGEPLVLAAHVD
soluble fraction (log2): 0.112

HMKIDELKAYLFQSVRVKNPHTQEYDTLKIIELNYYQDKIKAKLKNSDDDYITEMIFESIKHLQNFLG
soluble fraction (log2): -2.81

HMKIEEIAYSTFISMLDKGEVSKVELKDNLIYIETKADDKTIYTTGRMEDPDLTNRLIEAGVDFTEIE
soluble fraction (log2): -0.196

HMKIELSDNEKIIYDLLSSQHVLLSEIKDKAGLSNKAWDKSTKSLRKLGLIAVEKKDDDIYISKL
soluble fraction (log2): -0.0288

HMKIGIYPGTFDPITHGHTDIIRRSLRVFDKVVVAVAPNPSKHPLFTLTERLEMIRIVMKELEHVEVT
soluble fraction (log2): 0.159

HMKILVTDDNIRIDKYLTTQTEYSRSTIQKMIESNNILVNNKPTKSNYILRNNDEITIDENFNEE
soluble fraction (log2): -0.00567

HMKININEASRYELMTIGGLDAGRADMLMQYRQKREISSADELKGINGFASYDTAKLQKSFEISP
soluble fraction (log2): -0.0573

HMKIRKAVIPAAGLGTRVLPASKSIPKEMLPIVDKPVIQYIVEEAVKAGITEILIITGRGKGAIEDHFDRS
soluble fraction (log2): -0.391

HMKISIDNPSVLLDKLATLFPDTSKNKLRKMLTEGRIYVNDNIEHRAKRELINGDTVKILDKTTSKE
soluble fraction (log2): -0.121

HMKITAPLPGTITEIKVKVGDTVKNGDTVVVLEAMKMQNNIEAESNGTVTAIFVNKGDTVMEGDALMTI
soluble fraction (log2): -0.075

HMKITTKNYFKAIAEVGVENLPAALKKSHDLIEERTSKGADWSVYEHDAEVRRVFDLTFEKLFEFIDQ
soluble fraction (log2): -1.88

HMKKAITMGDIITVKELSEKIGIQVAEIIKKLMGLGILATINKELDYDTANVIASEFHIELERK
soluble fraction (log2): 0.117

HMKKASLSTVEKKLMKQNYSNDTMENRLARVESYMFGTVFSSDDTQTRIDRISSAYNAQKSS
soluble fraction (log2): -0.0731

HMKKDLATYAYEHIKQMVIDRELMPGERIQQEVLARELGISRTPLVTALNRLASENLVELEANKGFSVRRF
soluble fraction (log2): -0.451

HMKKEETEAEELEEKFTSAQIKQAYGILNDPRYKQGNYSGAVNVINKIAPGLADHPDVKNALKRANEEL
soluble fraction (log2): 0.809

HMKKGRIGSIIQYVREHPGVSSSEIITGLGLDISPATIRRDLTLLVAENKLSVEGQNKGTKYFVSPTYDMF
soluble fraction (log2): -1.22

HMKKIDVEVVRSQLIAWMADNGKSQAEVSKSMGISASALSMFIKGTYTGDNEQIGRKAAALMDLVHRQSA
soluble fraction (log2): -1.41

HMKKILITGNSGYIGSHLSKMLENDYEVHGLDIRQPQHPVAKFYEQDINRPINIEEEYDAVIHLAALV
soluble fraction (log2): -0.348

HMKKILLGDVNLDGKVDVNDVTLLQRYIAGETEVITSKDALTATNFNKDGNIDVLDVTDIQTFIANSE
soluble fraction (log2): -0.293

HMKKLTNKQIIFFAEKLAHHSDFASKYSKVGESYEEFAIRLEKELNTPQKVEFYSSYLEKVGFK
soluble fraction (log2): -2.54

HMKKPKTVLSEEQKEFIINQAQDGVSAYDIARILFPSVNVTNLSKEVIDVAEFIRDTDIKLLADSE
soluble fraction (log2): 0.00266

HMKKPRKTSRKSIENAAIFYLQRFSSSIENLRRVLMRRVYRSAQYHNTKPEEDAKIVDSIIYRLIETGVL
soluble fraction (log2): -0.322

HMKKSRLHSVLEEIPGIGEKRRKILIKHFGTVEAIKKSSLEELARIKGMNRRAAQNVLEYLK
soluble fraction (log2): -0.775

HMKKVIKIEENVSLQKLAALMSLKVTDVLMRLLSMGMSGVNINSTIDADTAKILASEFGWTVED
soluble fraction (log2): -0.529

HMKKVKVPNVVGMSLKEARDALSAVNIAVNQVAGSVEDKSVVTEQSLKAGDEVDEGSSLNLTTEYK
soluble fraction (log2): 0.878

HMKKYLTETEAAAYLNMPVEEIKAAITKGEIEQYVKTSSGYTISVEELDKFFGQKAYDTMTSNNS
soluble fraction (log2): 0.0786

HMKLASIGDNIHTLRKNKGLTQSQLAGKLGVNVDTISNYEKGVSTPDFDIVEKLVNIFNVDAHSLLFK
soluble fraction (log2): -0.287

HMKLEKKWIEAVEKYRRYVLSTGIKHVQKPIEFENFRLGQWYADVRQSYRRGTLSKEKLLEIREINPDFPN
soluble fraction (log2): -2.17

HMKLFGTPGSPFARKVRIVLEEKRIPHEYIIERGSAPGSRVPQYNPLGKVPTLVLDDGRGLYDSPVIVEYL
soluble fraction (log2): -0.531

HMKLGYTVHGNVVTVKAVANGISLYNTIGQKVAESTDGQTVKAPAHGVYILSVQGKSGSRETAKIVI
soluble fraction (log2): -1.67

HMKLHQDLQIKVIDAANNKVEFIDTATGTSLATRTLDVNGVSKARGFEATLYGVVEDNDVFHIA
soluble fraction (log2): 0.121

HMKLIRIPFILTEGPDSQKITIDVDGDEEFRLGDVFEEDDKLWTVNQILVSGERKAKRSMAGEVMRISALR
soluble fraction (log2): -1.2

HMKLNEQSMQVIDRIVDRHRGRPGPVKLMLHDVQKELGYIPFEAMEKIAAASGVSADEVYGVVTFYTQFTT
soluble fraction (log2): -0.919

HMKLNETIAEARKRKGLTQEQLAQKLYVTRQAVSRWERGEVVPGIDMLKLIAITLEEPIVHLL
soluble fraction (log2): -1.64

HMKLQIQNIEIDKKISELAEGVSAEKLPFLAKLIDRSKLLNDKGEINEDSVKAAIEEVVKAFPDFK
soluble fraction (log2): 0.0511

HMKLRKINLIGIFGSKTAPSALVRLTNGRVLKVGLGELLDGGRVTAIGRSSLTYNKSGKSITLNMPI
soluble fraction (log2): -4.08

HMKLRYRTQEELLGVAREYRRRGLPLSVIVIDFYHWTKFGDWKFDPAYWPDPVGMVRELRDMGVEAAV
soluble fraction (log2): -0.17

HMKLSKKVTDFLAQMPSKSISPKMLANNLGLADDAGDYKHLLKTIAQLEESKAIEVTAAGNIALPQPE
soluble fraction (log2): -0.162

HMKLSLKTQVKEYLLSYIRDKKLQPGDRLLTQRELAEMLHTSQKVAQMALNSLEEEGIIIRRLGSGSFLAR
soluble fraction (log2): -1.31

HMKLTKPQEVFIQELLKGSSQYEAYLKAYPSKKTWKRNSIDTEASKLFKNAKIKQRYEELLYNIREE
soluble fraction (log2): -0.695

HMKLTNNDFIRLKTFMYNNYGINLENKKTLIETRLAIVVKRLGFNDFKSYIDNLMRDKTGEQASIIVGKLT
soluble fraction (log2): -2.83

HMKLTPKQQQIYDFISSFADEHGYPPSVREIAQAVNLKSPATVHFHLKGLREAGYISQAEGKTRAITI
soluble fraction (log2): -0.158

HMKMDGESQRLLSLIKEQGGSLPIGDKSSPEAIYRLTQMSKKTFKMALGSLYKAKQVVLSPTEVRL
soluble fraction (log2): -1.45

HMKMNFNEEEQKLLSEANVLVETNKTYTDDEVKGFSNKIVEHIMTFSKTDIPKVKSKFDPILFKI
soluble fraction (log2): -0.359

HMKMTIEDLITQAKESNAAENYYEAFQLYSKAIDVLPNDPDLYSARGVVLFHLDRKEDSLIDMNKSVD
soluble fraction (log2): -0.17

HMKMVEIDYGKFLTMLDTGKVKSVEIENNRIAINPSSSKDKNIYITGRMDDPELVDRLKNAKVEFTKVIP
soluble fraction (log2): -0.0753

HMKNAYDLKMLVKDNDGNIERNMKYYFFLANGSKVEGITDDNGYTKTITTIQPEKADLHLINDELI
soluble fraction (log2): -1.61

HMKNDIQLKHDVEEELQWDPAVDASRFAVQAKDGVVTLSGGVDTFADKHAAEEAIRRVAGVTALVIHVDV
soluble fraction (log2): -0.27

HMKNEFRVYPNPANKEIVTFNQTQDIEVYDTLGKLVLKAKNTNTLDTKSFHSGIYFIKTGSGLTRKLVV
soluble fraction (log2): -1.09

HMKNEQESIAQKLYEAALKNDFVTIQEIQSGGYRLRNDDLTHMRESGVQSNTLIAIQKIFGL
soluble fraction (log2): 0.404

HMKNEQIFIVRPDAEGTRLDQWLAAQMASSEEAPSRMQIQRWIKAGLVEGQGTLNPARRIEAGESYTVKPG
soluble fraction (log2): 0.0684

HMKNEYAMVIQVNGKLRGNMLVSADLEQKDIERMALDNEDIKRFISHENDVKKMIFVPKKLINIVT
soluble fraction (log2): -1.21

HMKNIFDWLKQINYHKQPADSFTEKDWELFNSYMVHRFMSMNREFIEVVNYVQEMPPQEKILIYNIYREF
soluble fraction (log2): -2.16

HMKNIINFIVKEDDNNKRVDMILANHDKSLSRTRVKNLILDSKLKINERIVQDPSIKTKLNDKIELEIVEP
soluble fraction (log2): 0.631

HMKNIINLVIDGELHGKRIDAVIAQKNDSLSRTRIKNLVINGNLSINDEIVSDPSKKIYKDDKVSLTIPLP
soluble fraction (log2): -0.322

HMKNIMRQWIELEPDQGKIRSKLYSLDRVVEETTNEVGMIKLLLEIDEKELNNLVSHNDIRLV
soluble fraction (log2): -0.425

HMKNIRKQAIEAIDRIKNGNPIVISKNAKLIFKNIAKEANVSPTELHREFRDVMLYVNSLKAP
soluble fraction (log2): -0.346

HMKNKVTVPKVEGMDKEEAIQALNEVGLGYKAVMQSSDSVAEGKVISQGTAAGKKVDKNTQIIITVSGG
soluble fraction (log2): 0.237

HMKNLADNIVALRKKHGLSQEQFAEKIDVTRQAVSNWERRIATPDVETIDLIAKLFDTDLTALVNG
soluble fraction (log2): -0.342

HMKNLKLVSNTDGIRIDSWLADEFEDYSRSYLRKLIDQDLVYVNGNKIKANYKLKKGDEISISIPEPE
soluble fraction (log2): -0.151

HMKNLTERQQQIIALISGNPLITRAEIASAIGFSVKTIERELSILSEIVSYVGSKKGGHWEIQT
soluble fraction (log2): -2.66

HMKNLTERQQRIIALISENPQTTRAEIAGAIGVATKTIERELTTLSNIVYYVGPKKGGHWEIIK
soluble fraction (log2): -1.51

HMKNLTEVEYSEFLESIAQDRVSKVQVDGLIIRGEMNDGQRFETVQPQVTDKALIDDMVNHRVDFSGARP
soluble fraction (log2): 0.295

HMKNMSLGERIKEQRKSSGLSQEKVAEFVGVSRQAVTKWETGQSAPSTENLFKLAEIFGTTVDILLA
soluble fraction (log2): -0.198

HMKNNAIAPDQVVSLLKNEVNYNDDGRIEILDNNKNIRYNSKGELLTIEERVNEFLDANPHFRK
soluble fraction (log2): 0.0664

HMKNSMANVQARREKILSAVDQSEPVAVEGLAQRFNVSITTLRRDLKALSDMGQVKWHHGLVERT
soluble fraction (log2): -0.229

HMKNVADEVFEKMLNMIIEGDWKKGEMIPSENELREAFSVSRSTVRQAVQRLSALGIVRSRQGKGTYVEQV
soluble fraction (log2): -1.7

HMKNYYELLGVAREASQDQIKKAYRKLARKYHPDVSKEADAETRMQELNVAYDTLSDAEKKREYDFQLDHP
soluble fraction (log2): 0.0883

HMKPDDDMLLKILTKLFIQKQFVINSKDIFQYILKNTNRTYENIINIVNRLDTLSIEKKRQLTIPLIKEI
soluble fraction (log2): -0.585

HMKPEQIELTFSGTTAMRLDKFLAENQPGLSRAKLQAIISSGSVEVNGKVITKQAFKLDPGDLVKALIPE
soluble fraction (log2): -1.23

HMKPGWEDIFRMNQIQLEDAVRTVNRDDTLAPTKKAYLIQNLLASRWIVGNQLQAQKDKTTE
soluble fraction (log2): -0.126

HMKPGYVIQVNGTVTKIQSGLVYVKTPAAQYTLMRKYAPADAAVGDRVSLWINEEGMVIDVHGK
soluble fraction (log2): -2.03

HMKPKDILLPNFTNLTLDEAKAKAEEVKLNLNVSEEKYDVQIEEGKIISQDPKYQPNYTVKEGSTVNVVVS
soluble fraction (log2): ≥ 1.04

HMKPLIIPLELMQRLSSDKQLEAGFNRFSKSKQHEFAAYIAAAKRVETKVKRLEKIIPLILSGEGLNDR
soluble fraction (log2): -2.35
